According to patent US6410239B1, “Identification and comparison of protein—protein interactions that occur in populations and identification of inhibitors of these interactors” (CuraGen Corporation, priority 1996, dated 2002):

How the values were obtained:
[1] = molecular target: T1, YULH(R4-GBD) and N106′ (FKBP-12-GAD) interacting hybrid proteins (Homo sapiens, UniProt P62942); assay: 5-FOA assay identifying cells containing a non-genetically-encoded inhibitor of protein-protein interaction; type: cell-based, yeast
T1 construct: These primers flank the entire coding region of the FKBP-12 protein; expressed in transfected cells; host or cells: Saccharomyces cerevisiae YULH(R4-GBD) x N106'(FKBP-12-GAD)
Procedure: The above method described for the isolation of inhibitor peptides can also be used to screen and isolate inhibitors that are not genetically encoded. In other contexts, for example, a yeast-based transcription-inhibition assay has been used to screen for inhibitors of the HIV-1 proteinase (Murray et al., 1993, Gene 134:123-128). The reporter strains YULH(R4-GBD) and N106′ (FKBP-12-GAD), that harbor the reporter gene-systems and the two interacting proteins are grown in a 96-well format with each well containing 200 μl of media that selects for both the GBD and GAD plasmids (SC-LEU-TRP).
After a growth period (24-36 hours) that is sufficient for early log-phase growth (a cell density of 1×10^7 cells/ml), the cells are exposed to an RNA inhibitor at a concentration of 100 nM for 1-2 hours. This RNA inhibitor is of the sequence 5′-[…]-3′ (SEQ ID NO:35). The pyrimidines in this RNA are modified with 2′-amino-2-deoxypyrimidines that causes the RNA to be resistant to nucleases. This RNA binds with high affinity to VEGF (Green et al., 1995, Current Biol. 2:683-695). […]
In the absence of the RNA inhibitor, cells are not able to grow in 5-FOA. […] The activity of the lacZ gene is determined by assaying the β-galactosidase activity of the cells as mentioned in Section 6.1.11. […]

VEGF = molecular target: T2, VEGF (Homo sapiens, UniProt P15692); settings: cited from earlier work
T2 sequence (P15692 207-395): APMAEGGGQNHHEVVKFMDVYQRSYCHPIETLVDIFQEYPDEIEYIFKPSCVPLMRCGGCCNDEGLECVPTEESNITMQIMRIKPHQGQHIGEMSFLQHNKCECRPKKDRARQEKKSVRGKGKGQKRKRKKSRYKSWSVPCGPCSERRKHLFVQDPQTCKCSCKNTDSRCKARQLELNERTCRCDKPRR

[2] = molecular target: T3, interaction between the RAF-GAD and RAS-GBD proteins (Homo sapiens, UniProt P04049); assay: Peptide expressed from pPEV1 tested for inhibition of the RAS-RAF interaction in yeast mating two-hybrid assay; type: cell-based
T3 construct: expressed in transfected cells; host or cells: Saccharomyces cerevisiae diploids of YULH-RAFINT (RAF-GAD integrated at MER2) x N106' (RAS-GBD plasmid)
From the text: These oligonucleotides also introduced unique restriction sites (EagI and SphI) that facilitate the cloning of the amplified DNA fragments into the integration vector R1400. The R1400 plasmid vector consists of two yeast genes LYS2 (Fleig et al., 1986, Gene 46:237-245) and MER2 (Engebrecht et al., 1991, Cell 66:1257-1268). The LYS2 marker is used for the selection of integration events, while, the MER2 gene is used for integration of the entire plasmid into the yeast genome. MER2 is a gene that is not essential for the vegetative growth of yeast. The RAF-GAD gene was cloned into the R1400 plasmid to yield RAF-INT. This plasmid was then digested with the restriction enzyme PstI that has a site in the MER2 gene. The restriction was done in a partial manner as there are other PstI sites in the plasmid vector. The restriction digestion was allowed to proceed only for 1 minute and then the enzyme was inactivated by extracting with phenol-chloroform and the DNA was then precipitated. This linearized DNA was used to transform the YULH strain to yield YULH-RAFINT. Integration occurs at the MER2 locus, and the integration events were selected by growing the transformants on media lacking lysine. The N106′ strain was transformed with the RAS-GBD plasmid to form N106′ (RAS-GBD). The proper functioning of the RAF-GAD fusion was confirmed by mating YULH-RAFINT and N106′ (RAS-GBD) and observing the resultant activation of the URA3 and the lacZ Reporter Genes.
The PEVs serve to express and localize peptides (or proteins) in the nucleus of the yeast cell where their potential to inhibit specific protein-protein interactions is tested. This inhibitory activity of the peptides is monitored by their ability to inhibit the activity of the reporter genes like URA3, HIS3 and lacZ.
The PEVs comprise the following operably linked components (FIG. 7): an ADC1 promoter (ADC1-P) for supporting transcription in yeast (Ammerer, 1983, Meth. Enymol. 101:192-201); a nucleotide sequence encoding an SV40 Nuclear Localization Signal (NLS) for transporting the peptide to the nucleus (Dingwal and Laskey, 1991, Trends. Biochem. Sci. 16:478); followed by a stop codon (UAG) for terminating translation; means for inserting a DNA sequence encoding a candidate inhibitor peptide into the PEV in such a manner that the candidate inhibitor peptide is capable of being expressed as part of a fusion protein containing the NLS; and an ADC1 transcription termination signal. The NLS from SV40 large T comprises a 7 amino acid stretch (PKKKRKV) (SEQ ID NO:20) that has been successfully used in targeting proteins into the yeast nucleus (Benton et al., 1990, Mol. Cell. Biol. 10:353-360). […]

T1 sequence (P62942 whole entry): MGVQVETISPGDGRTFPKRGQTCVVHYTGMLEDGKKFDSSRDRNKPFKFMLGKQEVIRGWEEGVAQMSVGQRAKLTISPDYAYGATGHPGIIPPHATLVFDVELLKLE

Substance	growth in SC-TRP-LEU in the absence of 5-FOA, in the presence of the inhibitor ([1]; RNA inhibitor at 100 nM)	growth in media containing 5-FOA and uracil ([1]; RNA inhibitor at 100 nanomolar, without inhibitor cells are not able to grow in 5-FOA)	binding affinity to VEGF (VEGF)	β-galactosidase activity (lacZ reporter) of diploids ([2]; YULH2RAS (pPEVRAS-E) mated to N106′(RAS-GBD), control diploids are LACZ+)	growth of diploids on media lacking uracil (URA3 reporter) ([2]; YULH2RAS (pPEVRAS-E) mated to N106′(RAS-GBD), control diploids are URA+)	growth of diploids on medium containing 5-FOA ([2]; YULH2RAS (pPEVRAS-E) mated to N106′(RAS-GBD), control diploids unable to grow)	inhibition of the protein-protein interaction ([2]; peptide expressed in the yeast nucleus from pPEV1)
5′-CCCUGAUGGUAGACCGGGGUG-3′ (chemistry not fully specified) [RNA inhibitor]	able to grow	Growth is evident	high affinity				
RAS effector peptide: RAS amino acids 17-40, from a region important for interaction with RAF, expressed from pPEVRAS-E (SALTIQLIQNHFVDEYDPTIEDSY; UniProt P01112 17-40, looked up, fragment)				negative for β-galactosidase activity	unable to grow on media lacking uracil	grow on medium containing 5-FOA	inhibits the interaction
